Laboratory results from patent publication US20210070882A1 (Hoffmann-La Roche, published 2021).
Numbering of substitutions follows the chain as printed. “And” between values parts separate entries of the source, which are not always exact repeats. Equal values may be shown once. Read-outs that look alike come from different tables or passages of the source.

T1: human CD19 (human, UniProt P15391 20-556)
T1 sequence (looked up): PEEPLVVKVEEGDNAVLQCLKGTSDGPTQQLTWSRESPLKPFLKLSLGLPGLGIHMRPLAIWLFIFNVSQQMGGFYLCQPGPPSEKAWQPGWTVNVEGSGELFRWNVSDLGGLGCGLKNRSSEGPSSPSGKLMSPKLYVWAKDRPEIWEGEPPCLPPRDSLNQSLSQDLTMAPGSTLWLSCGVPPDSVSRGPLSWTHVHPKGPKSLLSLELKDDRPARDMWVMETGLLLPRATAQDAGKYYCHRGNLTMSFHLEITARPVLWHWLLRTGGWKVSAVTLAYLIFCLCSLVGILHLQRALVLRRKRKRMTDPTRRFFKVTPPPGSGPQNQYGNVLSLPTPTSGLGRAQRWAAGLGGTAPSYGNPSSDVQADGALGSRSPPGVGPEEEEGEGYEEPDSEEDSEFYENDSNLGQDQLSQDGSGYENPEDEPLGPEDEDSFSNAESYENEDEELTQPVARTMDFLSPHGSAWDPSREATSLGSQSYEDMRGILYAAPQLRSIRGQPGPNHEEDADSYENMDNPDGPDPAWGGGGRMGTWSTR

B1: Molecule B: 2+1 IgG CrossFab, inverted, without charge modifications (CH1/CL exchange in CD3 binder, parental murine CD19 binder 8B8) (bispecific antibody)
chain 1: EVQLQQSGPELVKPGASVKMACKASGYTFTDYIMHWVKQKTGQGLEWIGYINPYNDGSKYTEKFNGKATLTSDKSSITAYMELSSLTSEDSAVYYCARGTYYYGSALFDYWGQGTTLTVSSASTKGPSVFPLAPSSKSTSGGTAALGCLVKDYFPEPVTVSWNSGALTSGVHTFPAVLQSSGLYSLSSVVTVPSSSLGTQTYICNVNHKPSNTKVDKKVEPKSCDKTHTCPPCPAPEAAGGPSVFLFPPKPKDTLMISRTPEVTCVVVDVSHEDPEVKFNWYVDGVEVHNAKTKPREEQYNSTYRVVSVLTVLHQDWLNGKEYKCKVSNKALGAPIEKTISKAKGQPREPQVCTLPPSRDELTKNQVSLSCAVKGFYPSDIAVEWESNGQPENNYKTTPPVLDSDGSFFLVSKLTVDKSRWQQGNVFSCSVMHEALHNHYTQKSLSLSP
chain 2: not shown
chain 3: QAVVTQEPSLTVSPGGTVTLTCGSSTGAVTTSNYANWVQEKPGQAFRGLIGGTNKRAPGTPARFSGSLLGGKAALTLSGAQPEDEAEYYCALWYSNLWVFGGGTKLTVLSSASTKGPSVFPLAPSSKSTSGGTAALGCLVKDYFPEPVTVSWNSGALTSGVHTFPAVLQSSGLYSLSSVVTVPSSSLGTQTYICNVNHKPSNTKVDKKVEPKSC
chain 4: DAVMTQTPLSLPVSLGDQASISCRSSQSLENSNGNTYLNWYLQKPGQSPQLLIYRVSKRFSGVLDRFSGSGSGTDFTLKISRVEAEDLGVYFCLQLTHVPYTFGGGTKLEIKRTVAAPSVFIFPPSDEQLKSGTASVVCLLNNFYPREAKVQWKVDNALQSGNSQESVTEQDSKDSTYSLSSTLTLSKADYEKHKVYACEVTHQGLSSPVTKSFNRGEC
notes: also called CD19 TCB_8B8; CD19 TCB_8 B8
B2: Molecule D: 2+1 IgG CrossFab, inverted, without charge modifications (CH1/CL exchange in CD3 binder, murine CD19 binder 10C1) (bispecific antibody)
chain 1: B1 chain 3
chain 2: EVQLQQSGPELVKPGASVKMSCKASGYTFTSYVMHWVKQKPGQGLEWIGYINPYNDGTKFNEKFKGKATLTSDKSSSTAYMELSSLTSEDSAVYYCTRGVYYYGSSQGDYWGQGTTLTVSSASTKGPSVFPLAPSSKSTSGGTAALGCLVKDYFPEPVTVSWNSGALTSGVHTFPAVLQSSGLYSLSSVVTVPSSSLGTQTYICNVNHKPSNTKVDKKVEPKSCDKTHTCPPCPAPEAAGGPSVFLFPPKPKDTLMISRTPEVTCVVVDVSHEDPEVKFNWYVDGVEVHNAKTKPREEQYNSTYRVVSVLTVLHQDWLNGKEYKCKVSNKALGAPIEKTISKAKGQPREPQVCTLPPSRDELTKNQVSLSCAVKGFYPSDIAVEWESNGQPENNYKTTPPVLDSDGSFFLVSKLTVDKSRWQQGNVFSCSVMHEALHNHYTQKSLSLSP
chain 3: not shown
chain 4: B1 chain 4 with V56I, K58N, L64P, S68N, L96V, Y101W
notes: Same chain layout as molecule B (CD19 VL-CL light chain twice); also called CD19 TCB_10C1; CD19 TCB_10 C1
B3: DP47 TCB (untargeted TCB having an identical structure as molecule B but with the DP47 binder instead of a CD19 binder) (bispecific antibody)
heavy 1: not shown
heavy 2: not shown
light 1: B1 chain 3
light 2: not shown
notes: Negative control; also called untargeted TCB control; copies: 1 + 1 + 1 + 2

What was measured:
[1] = biological target: T1, human CD19; assay: cell-based or functional assay
[2] = biological target: T1, human CD19; assay: cell-based or functional assay; remark: listed apart in the source
[3] = biological target: T1, human CD19; assay: cell-based or functional assay; remark: listed apart in the source
[4] = biological target: T1, human CD19; assay: cell-based or functional assay; remark: listed apart in the source
[5] = biological target: T1, human CD19; assay: cell-based or functional assay; remark: listed apart in the source
[6] = biological target: T1, human CD19; assay: cell-based or functional assay; remark: listed apart in the source
[7] = biological target: T1, human CD19; assay: cell-based or functional assay; remark: listed apart in the source
[8] = biological target: T1, human CD19; assay: flow cytometry on CD19-expressing Raji cells
Method: (§1) The binding of CD19 IgGs and CD19 TCBs to human CD19- and CD3-expressing target cells was tested using CD19-expressing Burkitt's lymphoma cells (Raji) and CD3-expressing immortalized T lymphocyte line (Jurkat). Briefly, cells were harvested, counted, checked for viability and resuspended at 2×10⁶ cells/ml in FACS buffer (100 μl PBS 0.1% BSA). 100 μl of cell suspension (containing 0.2×10⁶ cells) were incubated in round-bottom 96-well plate for 30 min at 4° C. with increasing concentrations of the CD19 IgGs and CD19 TCBs (10 pM-200 nM), washed twice with cold PBS 0.1% BSA, re-incubated for further 30 min at 4° C. with the PE-conjugated AffiniPure F(ab′)2 Fragment goat anti-human IgG Fcg Fragment Specific secondary antibody (Jackson Immuno Research Lab PE #109-116-170), washed twice with cold PBS 0.1% BSA and immediately analyzed by FACS using a FACS Cantoll (Software FACS Diva) by gating live, DAPI-negative, cells.

[9] = biological target: T1, human CD19; assay: cell-based or functional assay; remark: listed apart in the source
[10] = biological target: T1, human CD19; assay: flow cytometry on CD19-expressing Raji cells; remark: listed apart in the source
Method: as §1

[11] = biological target: T1, human CD19; assay: flow cytometry on Nalm-6 cells and normal human B cells
Method: The binding of different CD19 TCB antibody formats (based on 8B8 clone) was assessed on human CD19-expressing target cells (Nalm-6 and normal human B cells) and human CD3-expressing target cells (CD4, CD8 T cells and Jurkat cells). The following CD19 TCB antibody formats were tested: molecule B as shown in FIG. 2B (named in this example “CD19 TCB_2+1_no charges_inverted”) and molecule A as shown in FIG. 2A (named in this example “CD19 TCB_2+1_charges CD19_inverted”). […] Briefly, cells were harvested, counted, checked for viability and resuspended at 1.5×10⁶ cells/ml in FACS buffer (100 μl PBS 0.1% BSA).

Binder	T cell activation EC50 upon Z-138 lysis, CD25/CD4 [4]	T cell activation EC50 upon Z-138 lysis, CD25/CD8 [4]	T cell activation EC50 upon Z-138 lysis, CD69/CD4 [4]	T cell activation EC50 upon Z-138 lysis, CD69/CD8 [4]	Tumor cell lysis Z-138 cells (21 h), EC50 [6]	Tumor cell lysis Z-138 cells (21 h), EC50 (pM) [6]	Tumor lysis EC50 (pM), Nalm-6 [7]	Tumor lysis EC50 (pM), SUDHL-4 [7]	EC50 [8]	T cell activation EC50, CD25/CD4, Nalm-6 [9]	T cell activation EC50, CD25/CD4, SUDHL-4 [9]	T cell activation EC50, CD25/CD8, Nalm-6 [9]	T cell activation EC50, CD25/CD8, SUDHL-4 [9]	T cell activation EC50, CD69/CD4, Nalm-6 [9]	T cell activation EC50, CD69/CD4, SUDHL-4 [9]	T cell activation EC50, CD69/CD8, Nalm-6 [9]	T cell activation EC50, CD69/CD8, SUDHL-4 [9]	other results
B1	2.4 pM	2.4 pM	1.8 pM	2.7 pM	0.8 ng/mL	4.1 pM	1.7 pM	0.8 pM	4.1 nM and 0.795 µg/mL	3.3 pM	3.9 pM	0.7 pM	2.1 pM	0.9 pM	2 pM	0.8 pM	2.7 pM	T cell activation EC50 upon lysis of Z-138 cells, CD25/CD4 [1]: 2.77 pM; T cell activation EC50 upon lysis of Z-138 cells, CD25/CD8 [1]: 1.7 pM; T cell activation EC50 upon lysis of Z-138 cells, CD69/CD4 [1]: ~0.81 pM; T cell activation EC50 upon lysis of Z-138 cells, CD69/CD8 [1]: 0.82 pM; T cell activation EC50 upon lysis of Z-138 cells, CD107/CD4 [1]: 1.37 pM; T cell activation EC50 upon lysis of Z-138 cells, CD107/CD8 [1]: 1.22 pM; Tumor cell lysis Z-138 cells (21 h), EC50 [2]: 0.62 ng/mL; Tumor cell lysis Z-138 cells (21 h), EC50 (pM) [2]: 3.16 pM; Tumor cell lysis Z-138 cells (21 h), EC50 [3]: 0.62 ng/mL; Tumor cell lysis Z-138 cells (21 h), EC50 (pM) [3]: 3.2 pM; T cell activation EC50 upon lysis of Z-138 cells, CD25/CD4 [5]: 3.22 pM; T cell activation EC50 upon lysis of Z-138 cells, CD25/CD8 [5]: 1.86 pM; T cell activation EC50 upon lysis of Z-138 cells, CD69/CD4 [5]: 1.01 pM; T cell activation EC50 upon lysis of Z-138 cells, CD69/CD8 [5]: 0.83 pM; T cell activation EC50 upon lysis of Z-138 cells, CD107/CD4 [5]: 1.68 pM; T cell activation EC50 upon lysis of Z-138 cells, CD107/CD8 [5]: 1.32 pM
B2	6.7 pM	5.9 pM	4.5 pM	5.7 pM	2.2 ng/mL	11.1 pM	2.1 pM	3.4 pM	7.7 nM and 1.49 µg/mL	11.8 pM	9.7 pM	3 pM	7.2 pM	5.6 pM	5.2 pM	3.8 pM	10.5 pM	EC50 [10]: 3000 to 8000 pM
B3	–	–	–	–	–	–	–	–	–	–	–	–	–	–	–	–	–	binding result [11]: no binding
